From patent US20220064316A1 (published 2022)

T1: human BCMA (B-cell maturation antigen) on cells (human, UniProt Q02223 1-184)
T1 sequence (looked up): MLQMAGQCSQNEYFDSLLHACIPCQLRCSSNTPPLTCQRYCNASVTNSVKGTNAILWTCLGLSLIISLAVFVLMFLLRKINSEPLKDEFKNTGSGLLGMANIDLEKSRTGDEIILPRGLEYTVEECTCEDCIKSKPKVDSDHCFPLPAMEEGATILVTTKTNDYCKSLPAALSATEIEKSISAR

T2: BCMA-Fc antigen (R&D Systems) (UniProt Q02223 1-54)
T2 construct: also called BCMA fc fusion protein (R&D Systems, cat #193-BC-050); recombinant BCMA-Fc; not shown: Fc portion of the bought fusion protein
T2 sequence (looked up): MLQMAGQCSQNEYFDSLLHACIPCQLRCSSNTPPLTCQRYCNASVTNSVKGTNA


Tests used:
[1] = biological target: T1, human BCMA (B-cell maturation antigen) …; assay: cell-based or functional assay
[2] = biological target: T2, BCMA-Fc antigen (R&D Systems); assay: flow cytometry; BCMA-Fc staining of CAR-transduced JNL cells
Protocol: Jurkat-NFAT-luciferase (JNL) cells transduced with BCMA CAR constructs were evaluated for activation in response to BCMA-expressing target cell lines. Small-scale viral supernatant samples were generated in HEK293T cells for transduction of JNL cells. On Day 3 following transduction, BCMA CAR-transduced JNL cells were incubated with target cells at an effector-to-target (E:T) ratio of 6:1. Target cell lines were: K562-BCMA (engineered to stably express BCMA), K562 (parental line), and BCMA positive multiple myeloma cell lines, NCI-H929 and RPMI 8226. JNL activation was measured using Bright-Glo substrate (Promega) on Day 4. CAR expression on transduced JNL was assessed on Day 7 with BCMA-Fc antigen and Biotin-Protein L reagent (Table 21).

| Binder | JNL binding assay, ratio to K562; K562-BCMA [1] [ratio] | JNL binding assay, ratio to K562; NCI-H929 [1] [ratio] | JNL binding assay, ratio to K562; RPMI 8226 [1] [ratio] | Proliferation CD3, ratio to no target; K562-BCMA [1] [ratio] | Proliferation CD3, ratio to no target; KMS11-luc [1] [ratio] | Proliferation CD3, ratio to no target; NCI-H929 [1] [ratio] | Proliferation CD3, ratio to no target; RPMI 8226 [1] [ratio] | Proliferation CD4, ratio to no target; K562-BCMA [1] [ratio] | Proliferation CD4, ratio to no target; KMS11-luc [1] [ratio] | Proliferation CD4, ratio to no target; NCI-H929 [1] [ratio] | Proliferation CD4, ratio to no target; RPMI 8226 [1] [ratio] | Proliferation CD8, ratio to no target; K562-BCMA [1] [ratio] | Proliferation CD8, ratio to no target; KMS11-luc [1] [ratio] | Proliferation CD8, ratio to no target; NCI-H929 [1] [ratio] | Proliferation CD8, ratio to no target; RPMI 8226 [1] [ratio] | % CAR+ (BCMA-Fc detection) [2] [%] |
| --- | --- | --- | --- | --- | --- | --- | --- | --- | --- | --- | --- | --- | --- | --- | --- | --- |
| BCMA-14 CAR (139113) (other, also called HJ64-62PB) EVQLVETGGGLVQPGGSLRLSCAVSGFALSNHGMSWVRRAPGKGLEWVSGIVYSGSTYYAASVKGRFTISRDNSRNTLYLQMNSLRPEDTAIYYCSAHGGESDVWGQGTTVTVSSASGGGGSGGRASGGGGSETTLTQSPATLSVSPGERATLSCRASQSVGSNLAWYQQKPGQGPRLLIYGASTRATGIPARFSGSGSGTEFTLTISSLQPEDFAVYYCQQYNDWLPVTFGQGTKVEIKTTTPAPRPPTPAPTIASQPLSLRPEACRPAAGGAVHTRGLDFACDIYIWAPLAGTCGVLLLSLVITLYCKRGRKKLLYIFKQPFMRPVQTTQEEDGCSCRFPEEEEGGCELRVKFSRSADAPAYKQGQNQLYNELNLGRREEYDVLDKRRGRDPEMGGKPRRKNPQEGLYNELQKDKMAEAYSEIGMKGERRRGKGHDGLYQGLSTATKDTYDALHMQALPPR | 2.81 | 2.65 | 3.31 | 4.12 | 3.42 | 3.86 | 3.93 | 5.73 | 3.97 | 5.07 | 4.84 | 2.65 | 2.83 | 2.73 | 3.03 | 31.8 |
| BCMA-12 CAR (139111) (other, also called HU13-58ZB) EVQLLESGGGLVQPGGSLRLSCAVSGFALSNHGMSWVRRAPGKGLEWVSGIVYSGSTYYAASVKGRFTISRDNSRNTLYLQMNSLRPEDTAIYYCSAHGGESDVWGQGTTVTVSSASGGGGSGGRASGGGGSDIVMTQTPLSLSVTPGQPASISCKSSQSLLRNDGKTPLYWYLQKAGQPPQLLIYEVSNRFSGVPDRFSGSGSGTDFTLKISRVEAEDVGAYYCMQNIQFPSFGGGTKLEIKTTTPAPRPPTPAPTIASQPLSLRPEACRPAAGGAVHTRGLDFACDIYIWAPLAGTCGVLLLSLVITLYCKRGRKKLLYIFKQPFMRPVQTTQEEDGCSCRFPEEEEGGCELRVKFSRSADAPAYKQGQNQLYNELNLGRREEYDVLDKRRGRDPEMGGKPRRKNPQEGLYNELQKDKMAEAYSEIGMKGERRRGKGHDGLYQGLSTATKDTYDALHMQALPPR | 3.17 | 2.78 | 3.36 | 2.9 | 2.76 | 2.98 | 3.27 | 3.42 | 2.94 | 3.41 | 3.66 | 1.51 | 2.11 | 1.76 | 2.12 | 23.4 |
| BCMA-13 CAR (139112) (other, also called B13; KG66-98AB) QVQLVESGGGLVQPGGSLRLSCAVSGFALSNHGMSWVRRAPGKGLEWVSGIVYSGSTYYAASVKGRFTISRDNSRNTLYLQMNSLRPEDTAIYYCSAHGGESDVWGQGTTVTVSSASGGGGSGGRASGGGGSDIRLTQSPSPLSASVGDRVTITCQASEDINKFLNWYHQTPGKAPKLLIYDASTLQTGVPSRFSGSGSGTDFTLTINSLQPEDIGTYYCQQYESLPLTFGGGTKVEIKTTTPAPRPPTPAPTIASQPLSLRPEACRPAAGGAVHTRGLDFACDIYIWAPLAGTCGVLLLSLVITLYCKRGRKKLLYIFKQPFMRPVQTTQEEDGCSCRFPEEEEGGCELRVKFSRSADAPAYKQGQNQLYNELNLGRREEYDVLDKRRGRDPEMGGKPRRKNPQEGLYNELQKDKMAEAYSEIGMKGERRRGKGHDGLYQGLSTATKDTYDALHMQALPPR | 3.74 | 2.68 | 3.66 | 3.47 | 3.2 | 3.46 | 3.48 | 5.4 | 3.84 | 5.05 | 4.44 | 2.34 | 2.79 | 2.53 | 2.86 | 32.7 |
| BCMA-9 CAR (139108) (other, also called OG62-93QB) QVQLVESGGGLVKPGGSLRLSCAASGFTFSDYYMSWIRQAPGKGLEWVSYISSSGSTIYYADSVKGRFTISRDNAKNSLYLQMNSLRAEDTAVYYCARESGDGMDVWGQGTTVTVSSASGGGGSGGRASGGGGSDIQMTQSPSSLSASVGDRVTITCRASQSISSYLNWYQQKPGKAPKLLIYAASSLQSGVPSRFSGSGSGTDFTLTISSLQPEDFATYYCQQSYTLAFGQGTKVDIKTTTPAPRPPTPAPTIASQPLSLRPEACRPAAGGAVHTRGLDFACDIYIWAPLAGTCGVLLLSLVITLYCKRGRKKLLYIFKQPFMRPVQTTQEEDGCSCRFPEEEEGGCELRVKFSRSADAPAYKQGQNQLYNELNLGRREEYDVLDKRRGRDPEMGGKPRRKNPQEGLYNELQKDKMAEAYSEIGMKGERRRGKGHDGLYQGLSTATKDTYDALHMQALPPR | 1.59 | 1.99 | 1.54 | 1.51 | 1.66 | 4.63 | 2.5 | 1.59 | 1.49 | 4.45 | 2.24 | 1.43 | 1.83 | 4.79 | 2.76 | 54.7 |
